Source: patent US12679878B2, “CRF2 receptor agonists and their use in therapy” (SANOFI, priority 2020, dated 2026)
Starred links: 1 amine or outer side, 2 acyl side, 3 side chain; linkers in the order of their positions; H or OH if unused. Non-standard residues stand in square brackets, D forms with d. Groups on a side chain read outwards from the residue. No end group written: not given here. *: point of attachment. C18 diacid = O=C(O)CCCCCCCCCCCCCCCCC(=O)*; γGlu = O=C(O)[C@H](CCC(=O)[*:2])N[*:1]; Palmitoyl = CCCCCCCCCCCCCCCC(=O)*; AEEA = NCCOCCOCC(=O)O; Aib = CC(C)(N)C(=O)O

B1: SEQ ID NO: 40 (peptide)
peptide: IVLSLDVPIKLK([AEEA-AEEA-γGlu-C18 diacid])QILLEQERQRKERQQAETNVQILAQV-NH2
modifications: N-terminus assumed
SMILES: CC[C@H](C)[C@H](N)C(=O)N[C@H](C(=O)N[C@@H](CC(C)C)C(=O)N[C@@H](CO)C(=O)N[C@@H](CC(C)C)C(=O)N[C@@H](CC(=O)O)C(=O)N[C@H](C(=O)N1CCC[C@H]1C(=O)N[C@H](C(=O)N[C@@H](CCCCN)C(=O)N[C@@H](CC(C)C)C(=O)N[C@@H](CCCCNC(=O)COCCOCCNC(=O)COCCOCCNC(=O)CC[C@H](NC(=O)CCCCCCCCCCCCCCCCC(=O)O)C(=O)O)C(=O)N[C@@H](CCC(N)=O)C(=O)N[C@H](C(=O)N[C@@H](CC(C)C)C(=O)N[C@@H](CC(C)C)C(=O)N[C@@H](CCC(=O)O)C(=O)N[C@@H](CCC(N)=O)C(=O)N[C@@H](CCC(=O)O)C(=O)N[C@@H](CCCNC(=N)N)C(=O)N[C@@H](CCC(N)=O)C(=O)N[C@@H](CCCNC(=N)N)C(=O)N[C@@H](CCCCN)C(=O)N[C@@H](CCC(=O)O)C(=O)N[C@@H](CCCNC(=N)N)C(=O)N[C@@H](CCC(N)=O)C(=O)N[C@@H](CCC(N)=O)C(=O)N[C@@H](C)C(=O)N[C@@H](CCC(=O)O)C(=O)N[C@H](C(=O)N[C@@H](CC(N)=O)C(=O)N[C@H](C(=O)N[C@@H](CCC(N)=O)C(=O)N[C@H](C(=O)N[C@@H](CC(C)C)C(=O)N[C@@H](C)C(=O)N[C@@H](CCC(N)=O)C(=O)N[C@H](C(N)=O)C(C)C)[C@@H](C)CC)C(C)C)[C@@H](C)O)[C@@H](C)CC)[C@@H](C)CC)C(C)C)C(C)C
B2: SEQ ID NO: 41 (peptide)
peptide: IVLSLDVPIKLK([AEEA-AEEA-γGlu-C18 diacid])QILLEQERQRKERQQAEKNVRILERV-NH2
modifications: N-terminus assumed
SMILES: CC[C@H](C)[C@H](N)C(=O)N[C@H](C(=O)N[C@@H](CC(C)C)C(=O)N[C@@H](CO)C(=O)N[C@@H](CC(C)C)C(=O)N[C@@H](CC(=O)O)C(=O)N[C@H](C(=O)N1CCC[C@H]1C(=O)N[C@H](C(=O)N[C@@H](CCCCN)C(=O)N[C@@H](CC(C)C)C(=O)N[C@@H](CCCCNC(=O)COCCOCCNC(=O)COCCOCCNC(=O)CC[C@H](NC(=O)CCCCCCCCCCCCCCCCC(=O)O)C(=O)O)C(=O)N[C@@H](CCC(N)=O)C(=O)N[C@H](C(=O)N[C@@H](CC(C)C)C(=O)N[C@@H](CC(C)C)C(=O)N[C@@H](CCC(=O)O)C(=O)N[C@@H](CCC(N)=O)C(=O)N[C@@H](CCC(=O)O)C(=O)N[C@@H](CCCNC(=N)N)C(=O)N[C@@H](CCC(N)=O)C(=O)N[C@@H](CCCNC(=N)N)C(=O)N[C@@H](CCCCN)C(=O)N[C@@H](CCC(=O)O)C(=O)N[C@@H](CCCNC(=N)N)C(=O)N[C@@H](CCC(N)=O)C(=O)N[C@@H](CCC(N)=O)C(=O)N[C@@H](C)C(=O)N[C@@H](CCC(=O)O)C(=O)N[C@@H](CCCCN)C(=O)N[C@@H](CC(N)=O)C(=O)N[C@H](C(=O)N[C@@H](CCCNC(=N)N)C(=O)N[C@H](C(=O)N[C@@H](CC(C)C)C(=O)N[C@@H](CCC(=O)O)C(=O)N[C@@H](CCCNC(=N)N)C(=O)N[C@H](C(N)=O)C(C)C)[C@@H](C)CC)C(C)C)[C@@H](C)CC)[C@@H](C)CC)C(C)C)C(C)C
B3: SEQ ID NO: 42 (peptide)
peptide: IVLSLDVPIKLK([AEEA-AEEA-γGlu-C18 diacid])QILLEQERQR[Aib]ERQQAEKNVRILERV-NH2
modifications: N-terminus assumed
SMILES: CC[C@H](C)[C@H](N)C(=O)N[C@H](C(=O)N[C@@H](CC(C)C)C(=O)N[C@@H](CO)C(=O)N[C@@H](CC(C)C)C(=O)N[C@@H](CC(=O)O)C(=O)N[C@H](C(=O)N1CCC[C@H]1C(=O)N[C@H](C(=O)N[C@@H](CCCCN)C(=O)N[C@@H](CC(C)C)C(=O)N[C@@H](CCCCNC(=O)COCCOCCNC(=O)COCCOCCNC(=O)CC[C@H](NC(=O)CCCCCCCCCCCCCCCCC(=O)O)C(=O)O)C(=O)N[C@@H](CCC(N)=O)C(=O)N[C@H](C(=O)N[C@@H](CC(C)C)C(=O)N[C@@H](CC(C)C)C(=O)N[C@@H](CCC(=O)O)C(=O)N[C@@H](CCC(N)=O)C(=O)N[C@@H](CCC(=O)O)C(=O)N[C@@H](CCCNC(=N)N)C(=O)N[C@@H](CCC(N)=O)C(=O)N[C@@H](CCCNC(=N)N)C(=O)NC(C)(C)C(=O)N[C@@H](CCC(=O)O)C(=O)N[C@@H](CCCNC(=N)N)C(=O)N[C@@H](CCC(N)=O)C(=O)N[C@@H](CCC(N)=O)C(=O)N[C@@H](C)C(=O)N[C@@H](CCC(=O)O)C(=O)N[C@@H](CCCCN)C(=O)N[C@@H](CC(N)=O)C(=O)N[C@H](C(=O)N[C@@H](CCCNC(=N)N)C(=O)N[C@H](C(=O)N[C@@H](CC(C)C)C(=O)N[C@@H](CCC(=O)O)C(=O)N[C@@H](CCCNC(=N)N)C(=O)N[C@H](C(N)=O)C(C)C)[C@@H](C)CC)C(C)C)[C@@H](C)CC)[C@@H](C)CC)C(C)C)C(C)C
B4: SEQ ID NO: 43 (peptide)
peptide: IVLSLDVPIKLK([AEEA-AEEA-γGlu-C18 diacid])QILLEQAKQKKLRAQAETNVRILERV-NH2
modifications: N-terminus assumed
SMILES: CC[C@H](C)[C@H](N)C(=O)N[C@H](C(=O)N[C@@H](CC(C)C)C(=O)N[C@@H](CO)C(=O)N[C@@H](CC(C)C)C(=O)N[C@@H](CC(=O)O)C(=O)N[C@H](C(=O)N1CCC[C@H]1C(=O)N[C@H](C(=O)N[C@@H](CCCCN)C(=O)N[C@@H](CC(C)C)C(=O)N[C@@H](CCCCNC(=O)COCCOCCNC(=O)COCCOCCNC(=O)CC[C@H](NC(=O)CCCCCCCCCCCCCCCCC(=O)O)C(=O)O)C(=O)N[C@@H](CCC(N)=O)C(=O)N[C@H](C(=O)N[C@@H](CC(C)C)C(=O)N[C@@H](CC(C)C)C(=O)N[C@@H](CCC(=O)O)C(=O)N[C@@H](CCC(N)=O)C(=O)N[C@@H](C)C(=O)N[C@@H](CCCCN)C(=O)N[C@@H](CCC(N)=O)C(=O)N[C@@H](CCCCN)C(=O)N[C@@H](CCCCN)C(=O)N[C@@H](CC(C)C)C(=O)N[C@@H](CCCNC(=N)N)C(=O)N[C@@H](C)C(=O)N[C@@H](CCC(N)=O)C(=O)N[C@@H](C)C(=O)N[C@@H](CCC(=O)O)C(=O)N[C@H](C(=O)N[C@@H](CC(N)=O)C(=O)N[C@H](C(=O)N[C@@H](CCCNC(=N)N)C(=O)N[C@H](C(=O)N[C@@H](CC(C)C)C(=O)N[C@@H](CCC(=O)O)C(=O)N[C@@H](CCCNC(=N)N)C(=O)N[C@H](C(N)=O)C(C)C)[C@@H](C)CC)C(C)C)[C@@H](C)O)[C@@H](C)CC)[C@@H](C)CC)C(C)C)C(C)C
B5: SEQ ID NO: 2 (peptide)
peptide: IVLSLDVPIKLK([γGlu-Palmitoyl])KILLEQEKQEKEKQQAETNAQILAQV-NH2
modifications: N-terminus assumed
SMILES: CCCCCCCCCCCCCCCC(=O)N[C@@H](CCC(=O)NCCCC[C@H](NC(=O)[C@H](CC(C)C)NC(=O)[C@H](CCCCN)NC(=O)[C@@H](NC(=O)[C@@H]1CCCN1C(=O)[C@@H](NC(=O)[C@H](CC(=O)O)NC(=O)[C@H](CC(C)C)NC(=O)[C@H](CO)NC(=O)[C@H](CC(C)C)NC(=O)[C@@H](NC(=O)[C@@H](N)[C@@H](C)CC)C(C)C)C(C)C)[C@@H](C)CC)C(=O)N[C@@H](CCCCN)C(=O)N[C@H](C(=O)N[C@@H](CC(C)C)C(=O)N[C@@H](CC(C)C)C(=O)N[C@@H](CCC(=O)O)C(=O)N[C@@H](CCC(N)=O)C(=O)N[C@@H](CCC(=O)O)C(=O)N[C@@H](CCCCN)C(=O)N[C@@H](CCC(N)=O)C(=O)N[C@@H](CCC(=O)O)C(=O)N[C@@H](CCCCN)C(=O)N[C@@H](CCC(=O)O)C(=O)N[C@@H](CCCCN)C(=O)N[C@@H](CCC(N)=O)C(=O)N[C@@H](CCC(N)=O)C(=O)N[C@@H](C)C(=O)N[C@@H](CCC(=O)O)C(=O)N[C@H](C(=O)N[C@@H](CC(N)=O)C(=O)N[C@@H](C)C(=O)N[C@@H](CCC(N)=O)C(=O)N[C@H](C(=O)N[C@@H](CC(C)C)C(=O)N[C@@H](C)C(=O)N[C@@H](CCC(N)=O)C(=O)N[C@H](C(N)=O)C(C)C)[C@@H](C)CC)[C@@H](C)O)[C@@H](C)CC)C(=O)O
B6: SEQ ID NO: 44 (peptide)
peptide: IVLSLDVPIKLK([AEEA-AEEA-γGlu-C18 diacid])QILLEQAKQKKERAQAETNVRILERV-NH2
modifications: N-terminus assumed
SMILES: CC[C@H](C)[C@H](N)C(=O)N[C@H](C(=O)N[C@@H](CC(C)C)C(=O)N[C@@H](CO)C(=O)N[C@@H](CC(C)C)C(=O)N[C@@H](CC(=O)O)C(=O)N[C@H](C(=O)N1CCC[C@H]1C(=O)N[C@H](C(=O)N[C@@H](CCCCN)C(=O)N[C@@H](CC(C)C)C(=O)N[C@@H](CCCCNC(=O)COCCOCCNC(=O)COCCOCCNC(=O)CC[C@H](NC(=O)CCCCCCCCCCCCCCCCC(=O)O)C(=O)O)C(=O)N[C@@H](CCC(N)=O)C(=O)N[C@H](C(=O)N[C@@H](CC(C)C)C(=O)N[C@@H](CC(C)C)C(=O)N[C@@H](CCC(=O)O)C(=O)N[C@@H](CCC(N)=O)C(=O)N[C@@H](C)C(=O)N[C@@H](CCCCN)C(=O)N[C@@H](CCC(N)=O)C(=O)N[C@@H](CCCCN)C(=O)N[C@@H](CCCCN)C(=O)N[C@@H](CCC(=O)O)C(=O)N[C@@H](CCCNC(=N)N)C(=O)N[C@@H](C)C(=O)N[C@@H](CCC(N)=O)C(=O)N[C@@H](C)C(=O)N[C@@H](CCC(=O)O)C(=O)N[C@H](C(=O)N[C@@H](CC(N)=O)C(=O)N[C@H](C(=O)N[C@@H](CCCNC(=N)N)C(=O)N[C@H](C(=O)N[C@@H](CC(C)C)C(=O)N[C@@H](CCC(=O)O)C(=O)N[C@@H](CCCNC(=N)N)C(=O)N[C@H](C(N)=O)C(C)C)[C@@H](C)CC)C(C)C)[C@@H](C)O)[C@@H](C)CC)[C@@H](C)CC)C(C)C)C(C)C

biological target: human corticotropin-releasing factor 2α (CRF2 α receptor) (human), Q13324; assay: cell-based or functional assay
Sequence (Q13324 20-411): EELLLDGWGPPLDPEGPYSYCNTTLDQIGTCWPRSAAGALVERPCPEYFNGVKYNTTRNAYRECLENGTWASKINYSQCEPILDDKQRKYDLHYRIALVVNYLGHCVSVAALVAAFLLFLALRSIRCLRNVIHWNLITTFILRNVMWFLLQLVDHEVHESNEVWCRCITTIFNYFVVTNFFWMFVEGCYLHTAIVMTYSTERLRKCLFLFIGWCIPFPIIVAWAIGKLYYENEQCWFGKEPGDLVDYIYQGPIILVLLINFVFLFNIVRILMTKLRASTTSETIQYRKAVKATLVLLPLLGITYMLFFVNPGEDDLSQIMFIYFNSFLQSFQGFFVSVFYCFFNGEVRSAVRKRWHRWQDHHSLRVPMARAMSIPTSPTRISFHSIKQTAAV

B1 and B2 are within 1.5-fold of each other in EC50 [nM], 0% HSA: 15.4 nM for the first, 15.6 nM for the second.

Compared with B3, B4 is 8.1-fold lower in EC50 [nM], 0% HSA: 15.4 nM for the first, 1.9 nM for the second.

Compared with B5, B6 is 1400-fold higher in EC50 [nM], 0% HSA: 0.01 nM for the first, 13.7 nM for the second.

B5 was tested, and the EC50 [nM], 0.1% HSA was 0.01 nM.
